Measured values published in patent publication EP4626929A2 (dated 2025).

Biological target: BTLA on human primary B cells (human, UniProt Q7Z6A9 31-289)
Test: cell-based or functional assay

B1: BTLA agonist antibody M10825 (antibody, human IgG2, kappa)
heavy: QITLKESGPTLVKPTQTLTLTCTFSGFSLSTSGVGVGWIRQPPGKALEWLAQEFWTGDKRYSPSLKSRLTITKDTSKNQVVLTMTNMDPVDTATYYCTHKLGMNYFDYWGQGTLVTVSSASTKGPSVFPLAPCSRSTSESTAALGCLVKDYFPEPVTVSWNSGALTSGVHTFPAVLQSSGLYSLSSVVTVPSSNFGTQTYTCNVDHKPSNTKVDKTVERKCCVECPPCPAPPVAGPSVFLFPPKPKDTLMISRTPEVTCVVVDVSHEDPEVQFNWYVDGVEVHNAKTKPREEQFNSTFRVVSVLTVVHQDWLNGKEYKCKVSNKGLPAPIEKTISKTKGQPREPQVYTLPPSREEMTKNQVSLTCLVKGFYPSDIAVEWESNGQPENNYKTTPPMLDSDGSFFLYSKLTVDKSRWQQGNVFSCSVMHEALHNHYTQKSLSLSPG
light: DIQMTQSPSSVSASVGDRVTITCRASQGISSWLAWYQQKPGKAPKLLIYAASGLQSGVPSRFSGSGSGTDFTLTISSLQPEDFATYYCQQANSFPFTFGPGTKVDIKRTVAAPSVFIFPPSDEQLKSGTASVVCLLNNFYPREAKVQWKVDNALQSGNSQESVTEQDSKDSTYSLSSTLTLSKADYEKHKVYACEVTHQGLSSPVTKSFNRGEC
B1 was tested, and the “IC50 of inhibition of human primary B cell proliferation” value was 0.0105 µM.
